Experimental data: publication PMC5676692

Target: integrin αVβ6 heterodimer (integrin alpha-V, ITGAV, and integrin beta-6, ITGB6) (human (endogenous in HEK293T)) (UniProt P18564)
Sequence of UniProt P18564 (P18564 whole entry, looked up, one chain of several): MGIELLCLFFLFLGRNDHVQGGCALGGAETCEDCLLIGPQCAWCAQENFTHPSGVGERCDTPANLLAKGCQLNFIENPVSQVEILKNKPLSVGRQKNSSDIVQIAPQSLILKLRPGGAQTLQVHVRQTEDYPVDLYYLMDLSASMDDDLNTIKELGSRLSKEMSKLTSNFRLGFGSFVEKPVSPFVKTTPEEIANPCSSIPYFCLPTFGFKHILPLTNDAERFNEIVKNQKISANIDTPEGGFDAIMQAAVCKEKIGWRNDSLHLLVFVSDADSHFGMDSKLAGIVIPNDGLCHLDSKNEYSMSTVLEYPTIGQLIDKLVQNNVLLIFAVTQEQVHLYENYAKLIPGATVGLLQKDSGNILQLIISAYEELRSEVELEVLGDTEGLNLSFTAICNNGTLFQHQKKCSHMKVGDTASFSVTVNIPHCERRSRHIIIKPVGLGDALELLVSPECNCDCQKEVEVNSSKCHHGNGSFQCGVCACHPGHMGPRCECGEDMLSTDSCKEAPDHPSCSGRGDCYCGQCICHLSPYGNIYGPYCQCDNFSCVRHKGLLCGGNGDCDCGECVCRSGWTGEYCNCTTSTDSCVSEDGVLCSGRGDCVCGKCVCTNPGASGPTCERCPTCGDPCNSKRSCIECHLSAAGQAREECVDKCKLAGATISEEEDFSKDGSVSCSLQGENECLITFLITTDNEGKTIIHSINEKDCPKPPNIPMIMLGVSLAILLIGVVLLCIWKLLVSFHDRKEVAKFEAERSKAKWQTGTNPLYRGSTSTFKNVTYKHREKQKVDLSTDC

control AAV9 viral particle (unmodified AAV9 capsid) (from UniProt Q6JC40 1-736; Q6JC40 138-736; Q6JC40 203-736) (complex)
AAV9-GFP transduction (GFP+ cells after 24 h) of HEK293T, Hela or U87 cells pre-treated for 2 h with 20 µg/ml of a mouse anti-human αVβ6 functional blocking antibody, against PBS control: 50%
